Measured values: patent US20080039402A1 (UNIVERSITE BORDEAUX 2, published 2008)
Positions of bridges follow the written chain, without caps; N, C: chain ends. Non-standard residues stand in square brackets, D forms with d. No end group written: not given here. βAla = NCCC(=O)O; Sar = CNCC(=O)O

T1: CD23 (FCεRII) on human CD23+ cells (human, UniProt P06734 1-321)
T1 sequence (looked up): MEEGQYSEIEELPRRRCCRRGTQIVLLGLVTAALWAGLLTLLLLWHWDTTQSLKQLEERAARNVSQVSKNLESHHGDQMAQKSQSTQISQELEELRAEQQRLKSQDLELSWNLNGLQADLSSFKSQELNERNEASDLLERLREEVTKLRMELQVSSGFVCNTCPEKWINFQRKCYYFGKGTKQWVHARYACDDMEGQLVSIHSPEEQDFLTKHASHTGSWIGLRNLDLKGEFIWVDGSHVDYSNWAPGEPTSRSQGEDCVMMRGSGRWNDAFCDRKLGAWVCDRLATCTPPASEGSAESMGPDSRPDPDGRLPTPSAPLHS

B1: Compound 397 (scrambled) (peptide)
peptide: SPWNEHF
notes: Comment 'scrambled'; L-amino acids, reverse order of FHENWPS
B2: Compound 290 (peptide)
peptide: HCNWCS
notes: Cys at residues 2 and 5; no disulfide is stated for this compound
B3: Compound 398 (peptide)
peptide: cyclo(HENW[Sar]S)
SMILES: CN1CC(=O)N[C@@H](CO)C(=O)N[C@@H](Cc2c[nH]cn2)C(=O)N[C@@H](CCC(=O)O)C(=O)N[C@@H](CC(N)=O)C(=O)N[C@@H](Cc2c[nH]c3ccccc23)C1=O

What was measured:
[1] = molecular target: T1, CD23 (FCεRII) on human CD23+ cells; experiment: cell-based or functional assay
[2] = molecular target: T1, CD23 (FCεRII) on human CD23+ cells; experiment: cytofluorometry; CD23+ cells pre-incubated with peptide, then CD23-Ab; Experiment 1
[3] = molecular target: T1, CD23 (FCεRII) on human CD23+ cells; experiment: cytofluorometry; CD23+ cells pre-incubated with peptide, then CD23-Ab; Experiment 2
[4] = molecular target: T1, CD23 (FCεRII) on human CD23+ cells; experiment: cytofluorometry; CD23+ cells pre-incubated with peptide, then CD23-Ab; Experiment 3
[5] = molecular target: T1, CD23 (FCεRII) on human CD23+ cells; experiment: cytofluorometry; CD23+ cells pre-incubated with peptide, then IgE/anti-IgE-FITC; Experiment 1
[6] = molecular target: T1, CD23 (FCεRII) on human CD23+ cells; experiment: cytofluorometry; CD23+ cells pre-incubated with peptide, then IgE/anti-IgE-FITC; Experiment 2
[7] = molecular target: T1, CD23 (FCεRII) on human CD23+ cells; experiment: inhibition of anti-CD23-FITC mAb binding to CD23+ cells; Activity grade

| Molecule | % Inhibition (nitrites; inhibition of iNOS production by activated CD23+ macrophages) [1] | binding result [7] | other results |
| --- | --- | --- | --- |
| Compound 410 (Ac N W BetaA CO2H) (peptide) | 61% | – | – |
| Compound 490 (G[allyl-] N W G[allyl-] S) (peptide) | 81% | – | – |
| Compound 489 (NH2 G[allyl-] N W G[allyl-]) (peptide) | 62% | – | – |
| unrelated control peptide (pNu) | – | – | TNF-α in supernatant of CD23+ cells, pNu + CD23-Ab, Experiment 1 [1]: 162 pg TNF-α/ml; TNF-α in supernatant of CD23+ cells, pNu + CD23-Ab, Experiment 2 [1]: 132 pg TNF-α/ml; [NO2-], macrophages from synovial fluid of Rheumatoid Arthritis patients, pNu + CD23-Ab, Experiment 1 [1]: 15.2 µM; [NO2-], macrophages from synovial fluid of Rheumatoid Arthritis patients, pNu + CD23-Ab, Experiment 2 [1]: 14.4 µM; % of fluorescence intensity recovered, compared to cells incubated in medium alone [2]: 120%; % of fluorescence intensity recovered, compared to cells incubated in medium alone [3]: 88%; % of fluorescence intensity recovered, compared to cells incubated in medium alone [4]: 94%; % of fluorescence intensity recovered, compared to cells incubated in medium alone [5]: 73%; % of fluorescence intensity recovered, compared to cells incubated in medium alone [6]: 110% |
| Compound 491 (Ac w n CO2H) (peptide) | 94% | – | – |
| Compound 411 (Ac N W CO2H) (peptide) | 84% | – | – |
| Compound 492 (Ac n w CO2H) (peptide) | 77% | – | – |
| F[βAla]ENWPS [Compound 339] | – | binds | – |
| HPNWRS [Compound 281] | – | binds | – |
| FHSQWPN [FHSQWPN (p30E)] | 65% | – | – |
| FHENWPS [FHENWPS peptide (p30A)] | 74% | – | – |
| HNEWPS [Compound 288] | – | binds | – |
| Ac-HENWPS-NH2 [Compound 243] | – | binds | – |
| HENAPS [Compound 436] | 60% | – | – |
| HENWES (lactam N-5) [Compound 327] | 60% | – | – |
| HENWGS (cyclic H2T (N-terminus amino group to C-terminus carboxyl group linkage)) [Compound 299] | 74% | – | – |
| HQNWPS-NH2 [Compound 400] | – | binds | – |
| HEQWPS [Compound 364] | – | binds | – |
| RENWPS [Compound 384] | – | binds | – |
| HENWKS [Compound 333] | 69% | – | – |
| FHENWPT [P30M (F H E N W P T)] | 76% | – | – |

| Molecule | % Inhibition (nitrites; inhibition of iNOS production by activated CD23+ macrophages) [1] | binding result [7] | other results |
| --- | --- | --- | --- |
| HENWPSG (cyclic H2T (N-terminus amino group to C-terminus carboxyl group linkage)) [Compound 298] | – | binds | – |
| B1 | – | binds | – |
| HENWPS-NH2 [Compound 244] | – | binds | – |
| HENWP-NH2 [Compound 249] | – | binds | – |
| HENWS (cyclic H2T (N-terminus amino group to C-terminus carboxyl group linkage)) [Compound 437] | 56% | – | – |
| FHENWAS [Compound 316] | – | binds | – |
| FHANWPS [Compound 337] | – | binds | – |
| FHENWPA [Compound 349] | – | binds | – |
| FAENWPS [Compound 338] | – | binds | – |
| FHEAWPS [Compound 331] | 43% | – | – |
| FHENW[βAla]S [Compound 328] | 26% | – | – |
| FH[βAla]NWPS [Compound 340] | – | binds | – |
| B2 | – | binds | – |
| HENWPS [P30K (H E N W P S)] | 74% | – | – |
| B3 | 74% | – | – |
| FHENWP [P30L (F H E N W P)] | 78% | – | – |
| HEPWRS [Compound 289] | – | binds | – |
| FHEQWPS [P30O (F H E Q W P S)] | 73% | – | – |
| FHKPWRA [P30G (F H K P W R A)] | 55% | – | – |
| FHEFWPT [FHEFWPT (p30D)] | 68% | – | – |
